Measurements reported in the supplement of paper PMC10724198.
± gives the standard deviation of the averaged measurements.

test system: Saccharomyces cerevisiae; assay: protein stability index of tFT-peptide fusion (C-terminal peptide) (PSI (0-1 scale)); higher = more stable (slower turnover); details: genetic background: doa10 deletion; temperature: 30 C
Description: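 MPS profiling in S. cerevisiae of the tFT-X12 degron library: putative degron peptides plus stable controls, 12 aa, fused to the C-terminus of a sfGFP-mCherry timer. Cells are FACS-sorted into 8 mCherry/sfGFP bins and deep-sequenced. PSI runs from 0 (unstable) to 1 (stable). Backgrounds are wild type, das1Δ and doa10Δ at 30 °C, and wild type, das1Δ, cdc34-1 and cdc53-1 at 37 °C; 2-3 technical replicates each.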
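Also: PSI is a weighted mean of sequencing reads over stability bins, variants kept only with over 10 reads, mCherry proximal and sfGFP distal, peptide attached via GGGS linker.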

Sequence | protein stability index
VVVCSLVPLFVL | 0.205 ± 0.012
VVVVWVVVEIVR | 0.121 ± 0.018
VVWVYSMLFSIW | 0.202 ± 0.013
VWFFLLSFANRL | 0.466 ± 0.029
VWFGGFVCSVLG | 0.244 ± 0.0056
VWFGGLAVCCGG | 0.2709 ± 0.0023
VWYSCWSFLVLF | 0.2 ± 0.011
VYRRKLDRLLCI | 0.171 ± 0.012
WAAVGIQLRLLF | 0.233 ± 0.026
WALVLLVPVWFD | 0.396 ± 0.055
WCAGCLGWWLQS | 0.246 ± 0.01
WCAMITVFCGSG | 0.179 ± 0.015
WCAVRVWFGAAL | 0.3927 ± 0.0016
WCCVFVARFFWL | 0.334 ± 0.0061
WEISNFFGCFIG | 0.325 ± 0.0037
WFFTDIVMLVRV | 0.237 ± 0.0069
WFSVFTMSILSR | 0.334 ± 0.004
WFWVAVGVVGGG | 0.326 ± 0.016
WGCIFWFFDVRV | 0.203 ± 0.0046
WGGEFLSLTLSS | 0.679 ± 0.025
WGIPRRPTLFIP | 0.296 ± 0.023
WHLLRFETQMFC | 0.151 ± 0.028

Sequence | protein stability index
WHVSLRFAFYVF | 0.136 ± 0.0056
WIVQCCLYVPVQ | 0.212 ± 0.0053
WIYKIVTYEKKS | 0.633 ± 0.038
WLGLFAFRRCLV | 0.194 ± 0.012
WLVIWPRKLSTV | 0.359 ± 0.014
WLVVGGVVLLVV | 0.175 ± 0.0046
WRLRIAAVVRSS | 0.123 ± 0.0017
WRVVVSCALHVC | 0.0395 ± 0.017
WSCFLLLLSLSL | 0.482 ± 0.013
WSFAPRLRCSYL | 0.7642 ± 0.004
WSMSSPPLLLAS | 0.22 ± 0.0085
WVIWFFVAACLR | 0.239 ± 0.0077
WVVVGWVGVGFR | 0.361 ± 0.019
WVVWVLVGGFGG | 0.232 ± 0.0043
WVVWWFACVFGV | 0.264 ± 0.008
WVYVFVSLFFVV | 0.196 ± 0.017
WYLLCESCLLCL | 0.39 ± 0.013
WYVRVYVLSVES | 0.137 ± 0.0079
YCAAVCFWGLYC | 0.13 ± 0.0034
YDVQIEFCVVEV | 0.347 ± 0.004
YFFFFLHFNFAF | 0.313 ± 0.034
YFFFYFFLLFHL | 0.416 ± 0.015

Sequence | protein stability index
YFWWLWMSFWVG | 0.419 ± 0.022
YGWGFLFILTLM | 0.14 ± 0.024
YHGVYLARVLQA | 0.243 ± 0.011
YIFLLRFFFFFS | 0.299 ± 0.011
YILIKEVLYAVC | 0.128 ± 0.023
YIRINNIYWKKS | 0.182 ± 0.0071
YLFPHVRPKFPG | 0.667 ± 0.0085
YLVSFVAFLRLF | 0.0967 ± 0.012
YMNLYKNVISVT | 0.316 ± 0.021
YMVESVWVLLGT | 0.381 ± 0.014
YPFIPLIVCGFF | 0.395 ± 0.019
YPVGAAFIRARA | 0.326 ± 0.0087
YQHSRSGRNKII | 0.109 ± 0.0063
YSRFALRPQLLV | 0.172 ± 0.0042
YSVNSLFCKVFG | 0.3135 ± 0.0031
YTCFLFLLRCMT | 0.1757 ± 0.00026
YVDSGLTLIHLA | 0.17091 ± 8.6e-05
YVQTKKTRYVLV | 0.32 ± 0.0047
YVSIWSPILWLA | 0.0697 ± 0.007
YYFCMYFKVTLC | 0.0456 ± 0.019
YYFFLTFLCYVF | 0.148 ± 0.019

same assay, conditions: genetic background: wild type; temperature: 30 C

Sequence | protein stability index
VVGVVVCWGRGW | 0.469 ± 0.015
VVISRVLAIRLL | 0.137 ± 0.028
VVIWWFSAVVSV | 0.0622 ± 0.026
VVPVGLYSVILV | 0.306 ± 0.021
VVSGLNYCLVLS | 0.28 ± 0.039
VVVCSLVPLFVL | 0.235 ± 0.029
VVVVWVVVEIVR | 0.133 ± 0.024
VVWVYSMLFSIW | 0.221 ± 0.021
VWFFLLSFANRL | 0.45 ± 0.0099
VWFGGFVCSVLG | 0.297 ± 0.026
VWFGGLAVCCGG | 0.303 ± 0.03
VWYSCWSFLVLF | 0.207 ± 0.024
VYRRKLDRLLCI | 0.182 ± 0.035
WAAVGIQLRLLF | 0.199 ± 0.018
WALVLLVPVWFD | 0.402 ± 0.014
WCAGCLGWWLQS | 0.316 ± 0.038
WCAMITVFCGSG | 0.208 ± 0.033
WCAVRVWFGAAL | 0.424 ± 0.01
WCCVFVARFFWL | 0.342 ± 0.011
WEISNFFGCFIG | 0.365 ± 0.01
WFFTDIVMLVRV | 0.193 ± 0.023
WFSVFTMSILSR | 0.341 ± 0.018
WFWVAVGVVGGG | 0.358 ± 0.015
WGCIFWFFDVRV | 0.207 ± 0.025

Sequence | protein stability index
WGGEFLSLTLSS | 0.683 ± 0.021
WGIPRRPTLFIP | 0.325 ± 0.035
WHLLRFETQMFC | 0.164 ± 0.016
WHVSLRFAFYVF | 0.158 ± 0.018
WIVQCCLYVPVQ | 0.237 ± 0.02
WIYKIVTYEKKS | 0.633 ± 0.036
WLGLFAFRRCLV | 0.223 ± 0.025
WLVIWPRKLSTV | 0.397 ± 0.022
WLVVGGVVLLVV | 0.197 ± 0.026
WRLRIAAVVRSS | 0.142 ± 0.021
WRVVVSCALHVC | 0.0423 ± 0.009
WSCFLLLLSLSL | 0.411 ± 0.011
WSFAPRLRCSYL | 0.792 ± 0.048
WSMSSPPLLLAS | 0.276 ± 0.013
WVIWFFVAACLR | 0.212 ± 0.022
WVVVGWVGVGFR | 0.378 ± 0.016
WVVWVLVGGFGG | 0.266 ± 0.021
WVVWWFACVFGV | 0.28 ± 0.019
WVYVFVSLFFVV | 0.17 ± 0.018
WYLLCESCLLCL | 0.408 ± 0.025
WYVRVYVLSVES | 0.168 ± 0.018
YCAAVCFWGLYC | 0.154 ± 0.013
YDVQIEFCVVEV | 0.379 ± 0.017
YFFFFLHFNFAF | 0.225 ± 0.059

Sequence | protein stability index
YFFFYFFLLFHL | 0.3115 ± 0.0019
YFWWLWMSFWVG | 0.403 ± 0.015
YGWGFLFILTLM | 0.101 ± 0.018
YHGVYLARVLQA | 0.286 ± 0.024
YIFLLRFFFFFS | 0.304 ± 0.044
YILIKEVLYAVC | 0.17 ± 0.024
YIRINNIYWKKS | 0.227 ± 0.034
YLFPHVRPKFPG | 0.664 ± 0.016
YLVSFVAFLRLF | 0.0919 ± 0.018
YMNLYKNVISVT | 0.353 ± 0.024
YMVESVWVLLGT | 0.421 ± 0.042
YPFIPLIVCGFF | 0.338 ± 0.018
YPVGAAFIRARA | 0.377 ± 0.026
YQHSRSGRNKII | 0.117 ± 0.034
YSRFALRPQLLV | 0.184 ± 0.024
YSVNSLFCKVFG | 0.361 ± 0.022
YTCFLFLLRCMT | 0.198 ± 0.024
YVDSGLTLIHLA | 0.181 ± 0.023
YVQTKKTRYVLV | 0.343 ± 0.018
YVSIWSPILWLA | 0.0628 ± 0.017
YYFCMYFKVTLC | 0.043 ± 0.0087
YYFFLTFLCYVF | 0.112 ± 0.027

same assay, conditions: genetic background: wild type; temperature: 37 C

Sequence | protein stability index
VVGVVVCWGRGW | 0.6212 ± 0.0058
VVISRVLAIRLL | 0.228 ± 0.042
VVIWWFSAVVSV | 0.165 ± 0.0031
VVPVGLYSVILV | 0.451 ± 0.02
VVSGLNYCLVLS | 0.4829 ± 0.0021
VVVCSLVPLFVL | 0.318 ± 0.0076
VVVVWVVVEIVR | 0.178 ± 0.012
